Experimental findings from patent US20240174744A1 (SCIRHOM, published 2024) are described below.

T1: hiR2-FL-L539A-T7 (human iRhom2 full length L539A, 3 x T7 tag) (human, UniProt Q6PJF5 1-856)
T1 sequence: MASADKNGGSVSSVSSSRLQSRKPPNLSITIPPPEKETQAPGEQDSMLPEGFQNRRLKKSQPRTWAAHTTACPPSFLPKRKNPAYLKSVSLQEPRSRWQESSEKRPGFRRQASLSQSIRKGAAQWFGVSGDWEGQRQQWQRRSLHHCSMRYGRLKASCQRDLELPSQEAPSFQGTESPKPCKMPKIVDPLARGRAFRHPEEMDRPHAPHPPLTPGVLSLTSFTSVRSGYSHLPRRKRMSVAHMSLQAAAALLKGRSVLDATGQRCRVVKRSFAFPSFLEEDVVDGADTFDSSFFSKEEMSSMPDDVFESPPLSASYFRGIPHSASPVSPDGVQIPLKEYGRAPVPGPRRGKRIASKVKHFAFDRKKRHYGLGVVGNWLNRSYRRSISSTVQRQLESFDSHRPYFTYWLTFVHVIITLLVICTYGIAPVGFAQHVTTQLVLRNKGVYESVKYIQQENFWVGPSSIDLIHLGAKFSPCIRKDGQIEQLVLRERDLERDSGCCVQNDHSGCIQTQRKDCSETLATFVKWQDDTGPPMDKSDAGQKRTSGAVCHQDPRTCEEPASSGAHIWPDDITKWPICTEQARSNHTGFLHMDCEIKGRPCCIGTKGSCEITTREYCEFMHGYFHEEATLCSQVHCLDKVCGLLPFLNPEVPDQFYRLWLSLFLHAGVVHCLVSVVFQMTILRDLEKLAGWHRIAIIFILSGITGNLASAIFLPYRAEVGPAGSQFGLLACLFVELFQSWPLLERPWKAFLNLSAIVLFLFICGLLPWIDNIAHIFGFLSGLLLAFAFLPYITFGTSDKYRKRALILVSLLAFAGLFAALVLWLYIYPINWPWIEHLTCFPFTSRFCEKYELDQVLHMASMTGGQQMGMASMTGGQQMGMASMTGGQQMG

B1: antibody 34 (antibody, V domains shown)
VH: QVTLKESGPGILQPSQTLSLTCSFSGFSLSTFSLGVGWIRQSSGKGLEWLAHIWWDDEKYYNPALKSRLTISKDTSKNQVFLKIANVDAADTATYYCARAYYSKSYYALDYWGQGTSVTVSS
VL: DIQMTQSPSSLSASLGERVSLTCRASQEISGYLSWLQQKPDGTIKRLIYAASTLDSGVPKRFSGSRSGSDYSLAISSLESEDFADYYCLQYANFPFTFGSGTKLEIK
notes: Mouse IgG, kappa light chain; also called clone #34; m34
B2: antibody 3 (antibody, V domains shown)
VH: QVTLKESGPGILQPSQTLSLTCSFSGFSLTTFAMGIGWVRQPSGKGLEWLAHIWWDGEKYNNPVLKSRLTISKDTSKNQVFLRIANVDTPDTATYYCARISSIYYIIDNWGQGTSVTVSS
VL: DIVLTQSPATLSVTPGHSVSLSCRASQSISNNLHWYQKKSHESPRLLIKYVSQSISGIPSRFSGSGSGTDFTLSINSVETEDFGMYFCQQSYNWPLTFGAGTKLELK
notes: Mouse IgG, kappa light chain; also called clone #3; purified antibody 3
B3: antibody 43 (antibody, V domains shown)
VH: QVALKESGPGILQPSQTLSLTCSFSGFSLSTFGMGVGWIRQSSGKGLEWLANIWWDDDKYYNPALKSRLTISKDASKNQAFLKIANVDTADTATYYCARIGNYGSNYWYFDVWGTGTTVTVSS
VL: QIVLTQSPAIMSASPGERVTMTCSANSRISYMYWYQQKPGSSPRLLIYDTSNLASGVPVRFSGSGSGTSYSLTISRMEAEDAATYNCQQWSSYPLTFGAGTKLELK
notes: Mouse IgG, kappa light chain; also called clone #43
B4: antibody 42 (antibody, V domains shown)
VH: QVTLKESGPGILQPSQTLSLTCSLSGFSLSTFGRGVGWIRQPSGKGLEWLAHIWWDDEKYYNPALKSRLTISKDTSKNQVFLRIANVDTADTATYYCARIQNYGSNYWYFDVWGTGTTVTVSS
VL: LIVLTQSPAIMSASPGEKVTMTCGATSRISYMFWYQQKPGSSPRVLIYDTSNLASGVPVRFSGSGSGTSYSLTISRVEAEDVATYYCQQWNSYPLTFGAGTKLELK
notes: Mouse IgG, kappa light chain; also called clone #42; m42
B5: antibody 44 (antibody, V domains shown)
VH: QVTLKESGPGILQPSQTLSLTCSFSGFSLSTFGMGVGWIRQPSEKGLEWLAHIWWDDDKYYNPALKSRLTISKDTSKNQIFLKITNVDTAETATYYCSRIGNYGSNYWYFDVWGTGTTVTVSS
VL: QIVLTQSPAVMSASPGEKVTMTCTASSSVYYMYWYQQTPGSSPRLLIYDTSNLASGVPVRFSGSGSGTSYSLTISRMEAEDAATYYCQQWNTYPLTFGAGTKLELK
notes: Mouse IgG, kappa light chain; also called clone #44; m44
B6: antibody 5 (antibody, V domains shown)
VH: QVTLKESGPGILQPSQTLSLTCSFSGFSLSTFGMGVGWIRQPSGKGLEWLAHIWWDDEKYYNSALKSRLTISKATSKNQAFLKIANVDTADTATYYCARISNYGSNYWYFNVWGTGTTVTVSS
VL: QVVLTQSPALMSASPGEKVTMTCSAGSSVSCMYWYQQKPGSSPRVLIYDTSNLASGVPARFTGSGSGTSYSLTISRMEAEDAASYYCQQWNSYPLTFGAGTKLELK
notes: Mouse IgG, kappa light chain; also called clone #5; purified antibody 5
B7: antibody 22 (antibody, V domains shown)
VH: QVTLKESGPGILQPSQTLSLTCSFSGFSLSTFGMGVGWIRQPSGKGLEWLAHIWWDDEKYYNSALKSRLTISKATSKNQVFLKIANVDTADTATYYCARISNYGSNYWYFNVWGTGTTVTVSS
VL: QVVLTQSPALMSASPGEKVTMTCSAGSSVSYMYWYQQKPGSSPRVLIYDTSNLASGVPARFTGSGSGTSYSLTISRMEAEDAATYYCQQWNSYPLTFGAGTKLELK
notes: Mouse IgG, kappa light chain; also called clone #22; m22

The target in the assay is T1, hiR2-FL-L539A-T7 (human iRhom2 full …). As to the kind of experiment: FACS on cells of the row L539A, vs human iR2 wild type = 100%. An excerpt:
In brief, immortalized MEF-DKO-hiR2-FL-G498A-T7, MEF-DKO-hiR2-FL-Q502R-T7, MEF-DKO-hiR2-FL-I509V-T7, MEF-DKO-hiR2-FL-Q512S-T7, MEF-DKO-hiR2-FL-R513E-T7, MEF-DKO-hiR2-FL-K514E-T7, MEF-DKO-hiR2-FL-D515E-T7, MEF-DKO-hiR2-FL-E518S-T7, MEF-DKO-hiR2-FL-T522V-T7, MEF-DKO-hiR2-FL-F523W-T7, MEF-DKO-hiR2-FL-Q527P-T7, MEF-DKO-hiR2-FL-D528I-T7, MEF-DKO-hiR2-FL-D529H-T7, MEF-DKO-hiR2-FL-T530P-T7, MEF-DKO-hiR2-FL-G531S-T7, MEF-DKO-hiR2-FL-P532A-T7, MEF-DKO-hiR2-FL-M534-T7, MEF-DKO-hiR2-FL-D535-T7, MEF-DKO-hiR2-FL-K536-T7, MEF-DKO-hiR2-FL-S537E-T7, MEF-DKO-hiR2-FL-D538L-T7, MEF-DKO-hiR2-FL-L539A-T7, MEF-DKO-hiR2-FL-Q541H-T7, MEF-DKO-hiR2-FL-T544Q-T7, MEF-DKO-hiR2-FL-S545F-T7, MEF-DKO-hiR2-FL-A547S-T7, MEF-DKO-hiR2-FL-T555V-T7, MEF-DKO-hiR2-FL-E557D-T7, MEF-DKO-hiR2-FL-A560S-T7 and MEF-DKO-hiR2-FL-S562E-T7 cells were harvested with 10 mM EDTA in PBS, washed and resuspended in FACS buffer (PBS, 3% FBS, 0.05% sodium azide), and seeded in Nunc U-bottom 96-well plates (Thermo Fisher Scientific, USA) at approximately 3×10⁵ cells per well. To pellet cells and remove supernatants, the plates were centrifuged at 1,500 rpm and 4° C. for 3 minutes. For primary staining, cells were resuspended in 100 μl per well of either FACS buffer alone (controls) or the purified antibodies 3, 5, 16, 22, 34, 42, 43, 44, 48, and 50 of the present disclosure at 3 μg/ml in FACS buffer and incubated on ice for 1 hour. Afterwards, plates were centrifuged at 1,500 rpm and 4° C. for 3 minutes and washed twice with 200 μl per well of FACS buffer. For secondary staining, cells were spun down and resuspended in 100 μl per well of PE-conjugated goat anti-mouse IgG F(ab′)2 detection fragment (Dianova, Germany) diluted 1:100 in FACS buffer. Protected from light, the cell suspensions were incubated on ice for 1 hour. Plates were then centrifuged at 1,500 rpm and 4° C. for 3 minutes and washed three times with 200 μl per well of FACS buffer. Finally, cells were resuspended in 150 μl per well of FACS buffer and analyzed using a BD Accuri™ C6 Plus flow cytometer (Becton Dickinson, Germany).
As to B1, the “grade of loss of binding vs wild type” value was 3 grade (3 => 95% loss of binding vs wild type).
To B2 belongs 3 grade (3 => 95% loss of binding vs wild type); to B3, 3 grade (3 => 95% loss of binding vs wild type).
Take B4: the “grade of loss of binding vs wild type” value was 3 grade (3 => 95% loss of binding vs wild type).
To B5 belongs 3 grade (3 => 95% loss of binding vs wild type); to B6, 3 grade (3 => 95% loss of binding vs wild type).
For B7, the “grade of loss of binding vs wild type” value was 3 grade (3 => 95% loss of binding vs wild type).
